1 protein from patent US20240166688 can be followed below.

This data set concerns the target T1, peptide of SEQ ID NO: 1.
T1 chain: GKCSTRGRKCCRRKK

B1: HDAC5 in RAW 264.7 cells (protein)
chain: MNSPNESDGMSGREPSLGILPRTPLHSIPVAVEVKPVLPGAMPSSMGGGGGGSPSPVELRGALAGPMDPALREQQLQQELLVLKQQQQLQKQLLFAEFQKQHDHLTRQHEVQLQKHLKQQQEMLAAKRQQELEQQRQREQQRQEELEKQRLEQQLLILRNKEKSKESAIASTEVKLRLQEFLLSKSKEPTPGGLNHSLPQHPKCWGAHHASLDQSSPPQSGPPGTPPSYKLPLLGPYDSRDDFPLRKTASEPNLKVRSRLKQKVAERRSSPLLRRKDGTVISTFKKRAVEITGTGPGVSSVCNSAPGSGPSSPNSSHSTIAENGFTGSVPNIPTEMIPQHRALPLDSSPNQFSLYTSPSLPNISLGLQATVTVTNSHLTASPKLSTQQEAERQALQSLRQGGTLTGKFMSTSSIPGCLLGVALEGDTSPHGHASLLQHVCSWTGRQQSTLIAVPLHGQSPLVTGERVATSMRTVGKLPRHRPLSRTQSSPLPQSPQALQQLVMQQQHQQFLEKQKQQQMQLGKILTKTGELSRQPTTHPEETEEELTEQQEALLGEGALTIPREGSTESESTQEDLEEEEEEEEEEEEDCIQVKDEDGESGPDEGPDLEESSAGYKKLFADAQQLQPLQVYQAPLSLATVPHQALGRTQSSPAAPGSMKSPTDQPTVVKHLFTTGVVYDTFMLKHQCMCGNTHVHPEHAGRIQSIWSRLQETGLLGKCERIRGRKATLDEIQTVHSEYHTLLYGTSPLNRQKLDSKKLLGPISQKMYAMLPCGGIGVDSDTVWNEMHSSSAVRMAVGCLVELAFKVAAGELKNGFAIIRPPGHHAEESTAMGFCFFNSVAITAKLLQQKLSVGKVLIVDWDIHHGNGTQQAFYNDPSVLYISLHRYDNGNFFPGSGAPEEVGGGPGVGYNVNVAWTGGVDPPIGDVEYLTAFRTVVMPIAQEFSPDVVLVSAGFDAVEGHLSPLGGYSVTARCFGHLTRQLMTLAGGRVVLALEGGHDLTAICDASEACVSALLSVELQPLDEAVLQQKPSVNAVATLEKVIEIQSKHWSCVQRFAAGLGCSLREAQTGEKEEAETVSAMALLSVGAEQAQAVATQEHSPRPAEEPMEQEPAL
On to B1, for which the “Phosphorylation ratio (Phospho explorer antibody microarray, peptide + LPS against LPS alone)” value is on record as “phosphorylation of HDAC5 was inhibited the most (0.278)”.
